In PMC9482650, “Quantitative fragmentomics allow affinity mapping of interactomes” (Nature Communications, 2022):

What was measured:
SCRIB = experiment: Western blot in stable HEK293T cell lines; type: cell-based, human; settings: for SCRIB relative protein level: source data of Figure 6 E, stable HEK293T cell line, IRES control line about 1
HEK293T cells = experiment: Label-free MS proteome of stable cell lines expressing HPV16 E6 or E6ΔPBM; type: cell-based, human; settings: source data of Figure 6 D, IRES control line about 1; for p53 relative protein level: stable HEK293T cell line expressing the construct; for AHNAK relative protein level / LIN7C relative protein level / MPP6 relative protein level / SNX27 relative protein level: stable HEK293T cell line
Experimental: HEK293T and HeLa cells were authenticated and found 100% identity to ATCC cat. CRL-3216 and ATCC cat. CCL-2, respectively. Jurkat and HaCat cell lines were not authenticated (original source: ECACC and Deutsches Krebsforschungszentrum DKFZ, respectively). HeLa cells were grown in DMEM (1 g/L glucose, Gibco) medium completed with 5% FCS and 40 μg/mL gentamicin, diluted every 3rd/4th day 1/10. HaCat cells were grown in DMEM (1 g/L glucose, Gibco) medium completed with 10% FCS and 40 μg/mL gentamicin, diluted every 3rd/4th day 1/4. Jurkat cells were grown in RPMI (Gibco) medium completed with 10% FCS and 40 μg/mL gentamicin, diluted every 3rd/4th day 1/12. All cells were kept at 37 °C and 5% CO2. For proteomics analyses cells were seeded on T-175 flasks. After they reached confluency, adherent cells were washed with PBS once and collected by scraping with ice-cold lysis buffer (Hepes-KOH pH 7.5 50 mM, NaCl 150 mM, Triton X-100 1%, complete EDTA-free protease inhibitor cocktail 1×, EDTA 2 mM, TCEP 5 mM, glycerol 10%). Jurkat cells were collected by 1000 g × centrifugation, washed once with PBS, then collected by 1000 g × 5 min centrifugation again and lysed in ice-cold lysis buffer. Lysates were sonicated 4 × 20 s with 1 s long pulses on ice, then incubated rotating at 4 °C for 30 min. Lysates were centrifuged at 12,000 rpm 4 °C for 20 min and supernatant was kept for further analysis. Concentration determination was carried out by standard Bradford method (Bio-Rad Protein Assay Dye Reagent #5000006) using BSA (MP BIomedicals #160069) as control on a Bio-Rad SmartSpec 3000 spectrophotometer instrument.
The samples were precipitated with TCA 20% overnight at 4 °C and centrifuged at 14,000 rpm for 10 min at 4 °C. The protein pellets were washed twice with 1 mL cold acetone and air dried. The protein extracts were solubilized in urea 8 M, reduced with 5 mM TCEP for 30 min, and alkylated with 10 mM iodoacetamide for 30 min in the dark. Double digestion was performed at 37 °C with 500 ng endoproteinase Lys-C for 4 h, followed by fourfold dilution and an overnight digestion with 500 ng trypsin. Peptide mixtures were then desalted on C18 spin-column and dried on Speed-Vacuum.
Samples were analyzed using an Ultimate 3000 nano-RSLC (Thermo Scientific, San Jose California) coupled in line with a LTQ-Orbitrap ELITE mass spectrometer via a nano-electrospray ionization source (Thermo Scientific, San Jose California). Peptide mixtures were injected in 0.1% TFA on a C18 Acclaim PepMap100 trap-column (75 µm ID × 2 cm, 3 µm, 100 Å, Thermo Fisher Scientific) for 3 min at 5 µL/min with 2% ACN, 0.1% FA in H2O and then separated on a C18 Accucore nano-column (75 µm ID × 50 cm, 2.6 µm, 150 Å, Thermo Fisher Scientific) at 220 nl/min and 38 °C with a 90 min linear gradient from 5% to 30% buffer B (A: 0.1% FA in H2O/B: 99% ACN, 0.1% FA in H2O), regeneration at 5% B. The mass spectrometer was operated in positive ionization mode, in data-dependent mode with survey scans from m/z 350–1500 acquired in the Orbitrap at a resolution of 120,000 at m/z 400. The 20 most intense peaks from survey scans were selected for further fragmentation in the Linear Ion Trap with an isolation window of 2.0 Da and were fragmented by CID with normalized collision energy of 35%. (TOP20CID method) Unassigned and single charged states were excluded from fragmentation. The Ion Target Value for the survey scans (in the Orbitrap) and the MS2 mode (in the Linear Ion Trap) were set to 1E6 and 5E3 respectively and the maximum injection time was set to 100 ms for both scan modes. Dynamic exclusion was set to 20 s after one repeat count with mass width at ±10 ppm.
Proteins were identified by database searching using SequestHT (Thermo Fisher Scientific) with Proteome Discoverer 2.4 software (PD2.4, Thermo Fisher Scientific) on human FASTA database downloaded from SwissProt (reviewed, release 2020_11_27, 20304 entries, https://www.uniprot.org/). […]

B1: E6: wild-type HPV16 E6 oncoprotein stably expressed in HEK293T cells (protein, UniProt P03126 1-158, looked up)
chain: MHQKRTAMFQDPQERPRKLPQLCTELQTTIHDIILECVYCKQQLLRREVYDFAFRDLCIVYRDGNPYAVCDKCLKFYSKISEYRHYCYSLYGTTLEQQYNKPLCDLLIRCINCQKPLCPEEKQRHLDKKQRFHNIRGRWTGRCMSCCRSSRTRRETQL
modifications: full-length
notes: wild-type HPV16 E6 oncoprotein stably expressed in HEK293T cells
**Q.** Which results are given for B1?
**A.** SCRIB relative protein level (SCRIB; replicate 1): 0.8205; SCRIB relative protein level (SCRIB; replicate 2): 0.6696; SCRIB relative protein level (SCRIB; replicate 3): 0.6225; decrease of SCRIB levels (SCRIB; western blot, GAPDH normalized, stable HEK293T cells compared to control cells, n = 3): ~ 30%; p53 relative protein level (HEK293T cells; replicate 1): 0.1537; p53 relative protein level (HEK293T cells; replicate 2): 0.2546; p53 relative protein level (HEK293T cells; replicate 3): 0.1997; AHNAK relative protein level (HEK293T cells; replicate 1): 0.9544; LIN7C relative protein level (HEK293T cells; replicate 1): 0.7333; MPP6 relative protein level (HEK293T cells; replicate 1): 0.8283; SNX27 relative protein level (HEK293T cells; replicate 1): 0.8078; AHNAK relative protein level (HEK293T cells; replicate 2): 0.9923; LIN7C relative protein level (HEK293T cells; replicate 2): 0.764; MPP6 relative protein level (HEK293T cells; replicate 2): 0.8646; SNX27 relative protein level (HEK293T cells; replicate 2): 1.3738; AHNAK relative protein level (HEK293T cells; replicate 3): 1.222; LIN7C relative protein level (HEK293T cells; replicate 3): 1.025; MPP6 relative protein level (HEK293T cells; replicate 3): 0.4141; SNX27 relative protein level (HEK293T cells; replicate 3): 1.15
